Assay [1] concerns the target T1, rat neurotensin type 1 receptor (rat), P20789.
T1 chain: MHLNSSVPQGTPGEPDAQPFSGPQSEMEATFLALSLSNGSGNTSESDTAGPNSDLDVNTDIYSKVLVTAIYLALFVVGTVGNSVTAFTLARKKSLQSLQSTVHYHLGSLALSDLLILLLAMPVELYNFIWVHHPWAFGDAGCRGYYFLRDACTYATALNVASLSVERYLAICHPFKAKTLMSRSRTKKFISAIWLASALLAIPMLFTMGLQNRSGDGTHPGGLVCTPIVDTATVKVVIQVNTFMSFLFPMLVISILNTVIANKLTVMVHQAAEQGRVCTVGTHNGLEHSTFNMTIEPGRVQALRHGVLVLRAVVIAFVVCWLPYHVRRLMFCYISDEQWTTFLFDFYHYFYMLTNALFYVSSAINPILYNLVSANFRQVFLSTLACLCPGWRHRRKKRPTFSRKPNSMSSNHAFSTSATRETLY

The target in assay [2] is T2, rat neurotensin type 2 receptor (rat), Q63384.
T2 chain: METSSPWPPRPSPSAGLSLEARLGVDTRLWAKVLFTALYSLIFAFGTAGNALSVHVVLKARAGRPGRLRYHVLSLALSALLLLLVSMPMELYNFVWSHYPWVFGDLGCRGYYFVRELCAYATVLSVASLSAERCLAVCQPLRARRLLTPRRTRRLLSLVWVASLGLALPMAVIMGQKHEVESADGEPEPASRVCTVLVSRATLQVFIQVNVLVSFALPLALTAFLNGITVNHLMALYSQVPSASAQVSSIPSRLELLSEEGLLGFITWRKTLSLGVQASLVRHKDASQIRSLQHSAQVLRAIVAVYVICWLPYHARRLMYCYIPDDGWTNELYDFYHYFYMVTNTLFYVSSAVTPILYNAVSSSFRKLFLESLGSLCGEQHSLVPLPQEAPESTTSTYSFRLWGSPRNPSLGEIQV

For assay [3], the target named is human neurotensin type 1 receptor (human), P30989.
Assay [4] has as its target T3, mouse neurotensin type 3 receptor (solubilized) (mouse), Q6PHU5.
T3 chain: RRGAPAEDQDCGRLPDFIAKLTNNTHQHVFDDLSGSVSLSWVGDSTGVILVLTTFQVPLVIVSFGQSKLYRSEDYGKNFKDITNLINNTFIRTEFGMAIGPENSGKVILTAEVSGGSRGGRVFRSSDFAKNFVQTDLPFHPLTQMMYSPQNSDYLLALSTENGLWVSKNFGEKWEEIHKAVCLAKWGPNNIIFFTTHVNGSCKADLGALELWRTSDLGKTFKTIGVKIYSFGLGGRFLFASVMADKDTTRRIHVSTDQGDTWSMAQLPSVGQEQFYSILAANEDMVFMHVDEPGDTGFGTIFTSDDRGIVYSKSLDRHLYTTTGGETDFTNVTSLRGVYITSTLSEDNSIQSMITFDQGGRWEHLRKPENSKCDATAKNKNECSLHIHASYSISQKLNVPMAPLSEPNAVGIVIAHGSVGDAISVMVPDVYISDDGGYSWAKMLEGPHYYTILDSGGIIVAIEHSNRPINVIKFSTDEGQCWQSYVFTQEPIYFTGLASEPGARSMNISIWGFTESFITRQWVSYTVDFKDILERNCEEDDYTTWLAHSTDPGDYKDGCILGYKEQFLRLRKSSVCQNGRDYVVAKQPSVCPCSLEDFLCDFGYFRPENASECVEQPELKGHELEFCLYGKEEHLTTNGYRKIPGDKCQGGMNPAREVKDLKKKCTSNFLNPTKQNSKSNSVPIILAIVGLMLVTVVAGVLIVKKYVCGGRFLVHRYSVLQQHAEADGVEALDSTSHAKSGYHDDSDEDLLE

Assay [5] concerns the target human neurotensin type 1 receptor (human), P30989. As to the kind of experiment: competition radioligand binding, reference neurotensin1-13.

Results on two molecules are retold here after patent US20040072758A1.

Chain of human neurotensin type 1 receptor (human), P30989 (P30989 whole entry): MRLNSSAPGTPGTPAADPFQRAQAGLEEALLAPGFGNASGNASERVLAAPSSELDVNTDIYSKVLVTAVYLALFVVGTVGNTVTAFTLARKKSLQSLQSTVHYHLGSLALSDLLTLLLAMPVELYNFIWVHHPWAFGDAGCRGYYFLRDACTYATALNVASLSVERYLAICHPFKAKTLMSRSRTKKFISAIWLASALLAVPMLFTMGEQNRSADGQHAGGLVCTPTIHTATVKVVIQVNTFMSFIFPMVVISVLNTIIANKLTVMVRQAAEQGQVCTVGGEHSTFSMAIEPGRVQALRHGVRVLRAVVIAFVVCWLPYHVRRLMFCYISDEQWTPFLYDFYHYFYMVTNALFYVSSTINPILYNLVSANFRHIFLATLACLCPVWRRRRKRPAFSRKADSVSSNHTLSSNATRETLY

For the molecule QSEEGGSNATKKPYIL (modifications not checked) [non-glycosylated Thr10-contulakin-G], the IC50 in assay [1] worked out at 79 nM; in assay [2], 170 nM; in assay [3], 23 nM; in assay [4], 71 nM. The molecule also yielded a fold lower affinity than Neurotensin1-13 in assay [5] of 10 fold.
On to QSEEGGSNATKKPYIL (modifications not checked) [contulakin-G (synthetic glycosylated 16-amino acid peptide, Gal(beta1->3)GalNAc(alpha1->) on Thr10)], for which the IC50 in assay [1] was 524 nM; in assay [2], 730 nM; in assay [3], 960 nM; in assay [4], 250 nM.

The term IC50 denotes the midpoint of a concentration-inhibition curve. Lower therefore signals inhibition by little substance.
